# Numbering of substitutions follows the chain as printed. Values joined by “and” are separate entries in the source; they are usually repeats but may differ in a detail not shown here. Equal entries are not always repeated.
# B1: Nb11 (clone pNbCOV011A) (VHH)
# VHH: HVQLVESGGGLVQAGGSLRLSCAVSGASAERVGWFRRAPGKEREFVAAIGANGGSTNYLDSVKGRFTISRDNAKNTVYLQMNSLKPQDTAVYYCAARNLETFDYTYWGRGTQVTVSS
# B2: Nb6 (AeroNab6, NbCOV6, clone pNbCOV006A) (VHH)
# VHH: QVQLVESGGGLVQAGGSLRLSCAASGIIFGRNAMGWYRQAPGKERELVAGITRRGSITYYADSVKGRFTISRDNAKNTVYLQMNSLKPEDTAVYYCAADPASPAPGDYWGQGTQVTVSS
# notes: also called AeroNab6 MASC monomer; Parent clone (NbCOV6)
# B3: mNb6-tri (trivalent mNb6 with a 20 amino acid linker) (VHH)
# chain: QVQLVESGGGLVQAGGSLRLSCAASGYIFGRNAMGWYRQAPGKERELVAGITRRGSITYYADSVKGRFTISRDNAKNTVYLQMNSLKPEDTAVYYCAADPASPAYGDYWGQGTQVTVSSGGGGSGGGGSGGGGSGGGGSQVQLVESGGGLVQAGGSLRLSCAASGYIFGRNAMGWYRQAPGKERELVAGITRRGSITYYADSVKGRFTISRDNAKNTVYLQMNSLKPEDTAVYYCAADPASPAYGDYWGQGTQVTVSSGGGGSGGGGSGGGGSGGGGSQVQLVESGGGLVQAGGSLRLSCAASGYIFGRNAMGWYRQAPGKERELVAGITRRGSITYYADSVKGRFTISRDNAKNTVYLQMNSLKPEDTAVYYCAADPASPAYGDYWGQGTQVTVSS
# B4: Nb6-tri (trivalent Nb6 with two 20 amino acid linkers) (VHH)
# chain: B3 chain with Y27I, Y105P, Y166I, Y244P, Y305I, Y383P
# Assays:
# [1] = target: SARS-CoV-2 Spike protein on pseudotyped lentivirus (SARS-CoV-2, UniProt P0DTC2 14-1273); assay: cell-based or functional assay
# [2] = target: T1, SARS-CoV-2 Spike receptor binding domain (RBD) (SARS-CoV-2, UniProt P0DTC2 319-541)
# [3] = target: SARS-CoV-2 Spike protein on pseudotyped lentivirus (SARS-CoV-2, UniProt P0DTC2 14-1273); assay: cell-based or functional assay; remark: listed apart in the source
# [4] = target: T1, SARS-CoV-2 Spike receptor binding …; assay: SPR, biotinylated RBD on a CAP chip
binder,measurement,setting,value
B1,"IC50, inhibition of pseudovirus infection of ACE2 expressing HEK293T cells",[1],2400 nM
B2,EC50,[2],190 nM
same,"IC50, inhibition of pseudovirus infection of ACE2 expressing HEK293T cells",[3],2000 nM
same,Kd,[4],41 nM
B3,"IC50, pseudovirus infection assay",[3],120 pM and 5 ng/mL
B4,"IC50, inhibition of pseudovirus infection of ACE2 expressing HEK293T cells",[3],1.2 nM
same,"fold enhancement of inhibitory activity against Nb6, pseudovirus",[3],2000 fold

# Reference: patent US20230227538A1 (University of California, published 2023)
